Data: patent US20240058478A1, “FOLATE RECEPTOR-TARGETED CONJUGATES, COMPOSITIONS, AND DELIVERY TO THE CENTRAL NERVOUS SYSTEM” (PURDUE RESEARCH FOUNDATION, priority 2021, published 2024)

Assays:
[1] = system: folate receptor-positive cells; assay: FRES uptake in SCI: NIR imaging of transverse spinal cord sections, conjugate vs unconjugated dye; type: in vivo, Sprague Dawley rats; conditions: for NIR signal in the spinal cords: SCI rats, injected day 7 after injury, imaged day 8, conjugate vs unconjugated NIR dye
Procedure: Adult male Sprague Dawley rats were given a moderate grade SCI. The rats were injected with OTL38 or unconjugated NIR dye on day 7 after injury. On day 8, the spinal cords were removed and imaged for NIR signal.
FIGS. 11A-11B show transverse spinal cord sections of the rostral portions (FIG. 11A) and epicenters (FIG. 11B) of a rat with SCI and injected seven days after injury with OTL38. […] The results are shown in FIG. 11D, which is a bar graph of mean fluorescence intensity vs. rostral portion and epicenter showing OTL38 uptake (students t-test, **p<0.01).

[2] = molecular target: T1, folate receptors on cells of the choroid plexus (Mus musculus, UniProt P35846); assay: Transport of folate conjugates across blood-cerebrospinal fluid barrier: NIR imaging of brain/choroid plexus; type: in vivo, B6 male mice
T1 construct: the uptake of OTL38 is mediated by folate receptors on cells of the choroid plexus; from tissue; host or cells: choroid plexus of live B6 male mice (in vivo, ex vivo NIR imaging of brain)
T1 sequence (P35846 25-232): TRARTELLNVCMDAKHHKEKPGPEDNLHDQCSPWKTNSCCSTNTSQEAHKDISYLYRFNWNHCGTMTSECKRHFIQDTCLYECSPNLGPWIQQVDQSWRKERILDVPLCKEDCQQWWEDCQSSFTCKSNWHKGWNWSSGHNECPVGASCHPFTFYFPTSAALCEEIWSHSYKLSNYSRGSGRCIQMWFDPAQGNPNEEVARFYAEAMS
From the text: Corresponding ventral side of the spinal cords are shown to the left of each brain. […] Green fluorescence indicates OTL38 signal. […] In the middle column (OTL38+Fol-Glu, n=4) minimal uptake is observed. In the far-right corner, Control (non-injected, n=1), no signal is observed. FIG. 9 is a graph of mean fluorescent intensity vs. time for CSF and blood. n=1-4 rats/timepoint.
B6 male mice were given an intravenous tail injection of a folate-fluorescent near infrared (NIR) dye conjugate (i.e., OTL38) and imaged. […] Corresponding ventral side of the spinal cords are shown to the left of each brain. […] Green fluorescence indicates OTL38 signal. […] In the middle column (OTL38+Fol-Glu, n=4) minimal uptake is observed. In the far right corner, Control (non-injected, n=1), no signal is observed.

[3] = Persistence of folate conjugate: NIR signal in blood and CSF over time; type: in vivo, Sprague Dawley rats; conditions: rats
Procedure: Adult male Sprague Dawley rats were injected with OTL38. Blood and cerebrospinal fluid (CSF) were then extracted at the same time at various timepoints and imaged. […] The data also indicate that the exposure of the CNS to the payload is extended over time.
FIG. 9 is a graph of mean fluorescent intensity vs. time for CSF and blood. n=1-4 rats/timepoint.

[4] = system: folate receptor-positive cells; assay: FRES uptake in spinal cord contusion injury (SCI): ex vivo NIR imaging of spinal cords; set-up: species or system Sprague Dawley rats; conditions: SCI rats
Procedure: Adult male Sprague Dawley rats were given a moderate grade spinal cord contusion injury (SCI). The rats were injected with OTL38 or simultaneously with OTL38 and Fol-Glu on day 7 after injury. On day 8, the spinal cords were removed and imaged for NIR signal.
NR signal is represented by green and red colors, with red showing areas of high intensity. Blue arrows point to the epicenter of the SCI. “R” indicates the rostral portion of the spinal cord.

[5] = system: rats with cortex laceration of the left hemisphere; assay: FRES uptake in cortex laceration: NIR imaging of the cortex; type: in vivo, Sprague Dawley rats; conditions: injected seven days after cortex laceration, brains removed next day
Procedure: Adult male Sprague Dawley rats were given brain injuries by cortex laceration of the left hemisphere using a small ophthalmic knife. Seven days after injury, the rats were injected with OTL38. The brains were removed the next day, and the cortexes were imaged.
FIGS. 13A-13B show a precise surface laceration injury in the cortex of the left hemisphere of the brain. FIG. 13A is a cartoon indicating the area of injury (blue circle) and the area imaged (blue rectangle). […] The right hemisphere cortex served as an internal control (uninjured, no signal).
Choroid plexus cells in the ventricles produce CSF and are the site of FRES release into the subarachnoid space, where the brain and spinal cord continue to be perfused. The 4th ventricle and lateral recess contain choroid plexus cells and are the site of outflow for newly produced CSF. The intense signal below the cerebellum (blue arrow) is a result of concentrated choroid plexus cells and FRES/new CSF production and entry for CNS perfusion. […] The opposite hemisphere represents an internal control with no areas of enhanced signal.

[6] = system: rats with controlled cortical impact (CCI) injuries; assay: FRES uptake in controlled cortical impact (CCI) injury: NIR imaging of the cortex surface; type: in vivo, Sprague Dawley rats; conditions: intravenous injection ten days after CCI injury, imaged next day
From the text: Adult male Sprague Dawley rats were given moderate grade controlled cortical impact (CCI) injuries. This injury represents concussion of the brain cortex, which is a more common injury in humans than laceration of the brain cortex. The impactor was circular and 6 mm in diameter. The rats were intravenously injected with OTL38 ten days after injury. The next day the rats were sacrificed, and the surfaces of the cortexes were imaged. […] The yellow arrow points to signal on the dorsal surface of the spinal cord.

[7] = system: eye; conditions: rat, in vivo
Procedure: An adult male Sprague Dawley rat was intravenously injected with OTL38 and imaged 24 hours later. […] Red and green colors indicate signal from the dye, with red showing the most intense regions.

[8] = system: eye; conditions: mouse, in vivo
Procedure: Given the extensive time that OTL38 remained in the eyes, signal in the presence of the folate competitor folate-glucosamine (Fol-Glc) was tested. Healthy, wild-type mice were injected with 10 nmols OTL38. Some mice were subsequently injected with Fol-Glc. All mice were subsequently sacrificed and examined in comparison to noninjected mice.

Row | Compound | NIR signal in the spinal cords [1] | NIR signal in the choroid plexus, co-injected with Fol-Glu ([2]; mice co-injected with OTL38 and folate-glucosamine conjugate (Fol-Glu), competitor for folate receptors) | NIR signal in the choroid plexus ([2]; mice, intravenous tail injection, 24 hours after injection) | NIR signal in the blood relative to that of the CSF ([3]; four hours post-injection and all subsequent timepoints) | NIR signal in the blood relative to that of the CSF ([3]; two hours post-injection, blood exceeded CSF) | NIR signal in the spinal cords, injected simultaneously with Fol-Glu ([4]; OTL38+Fol-Glu on day 7 after injury, imaged day 8) | NIR signal in the spinal cords ([4]; injected day 7 after injury, spinal cords imaged day 8) | Mean fluorescence intensity, epicenter vs rostral region ([1]; SCI rat, transverse spinal cord sections, students t-test **p<0.01) | NIR signal around the choroid plexus [5] | NIR signal at the cortex injury ([5]; uninjured right hemisphere no signal) | NIR signal at the CCI injury [6] | Uptake in the retina, eye slices [7] | NIR signal at the eye, live imaging ([7]; iv) | OTL38 signal (mean fluorescence intensity) in eyes after administration of Fol-Glc [8]
1 | CC1(C)C(/C=C/C2=C(Cl)C(=C/C=C3/N(CCCCS(=O)(=O)[O-])c4ccc(S(=O)(=O)[O-])cc4C3(C)C)/CCC2)=[N+](CCCCS(=O)(=O)[O-])c2ccc(S(=O)(=O)[O-])cc21.[Na+].[Na+].[Na+] [unconjugated NIR dye] | lack of signal |  |  |  |  |  |  |  |  |  |  |  |  | 
2 | OTL38 | Signal was observed | noticeable reduction in signal | Strong signal | dropped and remained lower than that of the CSF | nearly two-fold | lack of signal | Strong signal | significant increase in signal in the epicenter as compared to the rostral region | Increased signal around the choroid plexus | enhanced signal around the injury area | positive targeting of the 6 mm circular injury | strong OTL38 uptake in the area of the retina | intense red signal at the eye | reduced
